The source of these data is article PMC10480196, “Glycerol biosynthetic pathway plays an essential role in proliferation and antioxidative defense in the human enteric protozoan parasite Entamoeba histolytica” (Scientific Reports, 2023).

Assay type in all cases: biochemical, Entamoeba histolytica
Substrate in data set [1]: O=P(O)(O)OC[C@H](O)CO
Put plainly: purified protein. The note with it: reverse reaction, 1 mM ADP, 5 mM MgSO4, 1 mM EDTA, 50 mM Tris HCl pH 7.5.

Substrate in data set [2]: Nc1ncnc2c1ncn2[C@@H]1O[C@H](COP(=O)(O)OP(=O)(O)O)[C@@H](O)[C@H]1O
The data set is described as follows: purified protein. The settings on record: reverse reaction, 40 mM G3P, 5 mM MgSO4, 1 mM EDTA, 50 mM Tris HCl pH 7.5.

Substrate in data set [3]: OCC(O)CO
Put plainly: coupled fluorescence assay (ADP hexokinase, G6P dehydrogenase, diaphorase; resazurin reduction). The settings on record: forward reaction, 2 mM ATP, 5 mM MgCl2, 50 mM Tris HCl pH 7.5, 37 °C, 10 mM N-ethylmaleimide. The text has this:
(§1) coupled fluorescence assay (ADP hexokinase, G6P dehydrogenase, diaphorase; resazurin reduction) on EhGK (rEhGK, recombinant E. histolytica glycerol kinase)
Background: Resazurin is reduced to fluorescent resorufin, in cell work by metabolically active cells.

Substrate in data set [4]: Nc1ncnc2c1ncn2[C@@H]1O[C@H](COP(=O)(O)OP(=O)(O)OP(=O)(O)O)[C@@H](O)[C@H]1O
The data set is described as above. The settings on record: forward reaction, 2 mM glycerol, 5 mM MgCl2, 50 mM Tris HCl pH 7.5, 37 °C, 10 mM N-ethylmaleimide.
Source text: as §1

B1: EhGK (rEhGK, recombinant E. histolytica glycerol kinase) (Entamoeba histolytica HM-1:IMSS) (protein)
chain: MKYILAIDQGTTSTRVILFDEKCQSIHTEQEEFDSIFPHPGWVEQDPEVIYTSVVNLMKKCLVNTGINKEDIAAIGITNQRETTVMWDKRTGKPIYNAIVWQSKQSGNETSYLMEKGYEEIFQSKTGLVLNPYFSASKIMWIFNNVEGAKALAEEGVLLFGTIDTWIIYNLTGGQSHSTDISNAARTLLFNIYEKKWDDELLAKTNIPKSILPIVKQSSDDFGIVSTIQEFNGIHITGVAGDQQASLFGHGSPIGGCKSTYGTGCFVVKNIGDTIKEIPKGLLATVGWEINGKITYALEGTVMTAGAALKWIRDIGILKDYNEISKIVTSKNGGVYFVPAFQGLGTPYWDDDVRGIIVGLTSGTGKGELVRATLESIALQCAQVIEIMGKINEIKVDGGVSRSDCMLQFQADICNCTVIRLKEKEITAMGAAMLAGLYVHLFKEDELDSMRVIEHVFKPQMSEEERKQIFSVWNKAVESARSFVH
Turning to B1, the Km (as a rule, the substrate concentration at which the rate is half of its maximum) is 8710 ± 2460 µM in “purified protein [1]”, 140 ± 40 µM in the data set “purified protein [2]”, 160 ± 30 µM in data set [3] and 230 ± 30 µM in data set [4]. The Vmax (commonly the rate approached at saturating substrate) in the data set “purified protein [1]” worked out at 1.28 µmol/min/mg; in the data set “purified protein [2]” it was 1.2 µmol/min/mg; in data set [3], 1.48 µmol/min/mg; in data set [4], 1.3 µmol/min/mg.
